From the RNAGym collection of RNA variant scans (doi:10.1021/acssynbio.7b00057)

B1: Pistol ribozyme (parent)
chain: GGGUCGUUGUUCCAUAAUCGCGUGGAUAUGGCACGCAAGUUUCUACCGGGCACCGUAAAUGUCCGACUGGAGCCGUUCGGGCGGCUAUAAACAGACCUCAGGCCCGAAGCGUGGCGGCACCUGCCGCCGGUGGUAAAAAAGAUCGGAAGAGCACACGUCU

Variants of: B1
Test: aptazyme ON/OFF ratio, guanine; higher = stronger switching; co-transcriptional cleavage with and without guanine
With GGGUCGGCAGAGAAUAAUCGCGUGGAUAUGGCACGCAAGUUUCUACCGGGCACCGUAAAUGUCCGACUGGAGCCGUUCGGGCGGCUAUAAACAGACCUCAGGCCCGAAGCGUGGCGGCACCUGCCGCCGGUGGUAAAAAAGAUCGGAAGAGCACACGUCU the “aptazyme ON/OFF ratio” value was 1.09. In the case of GGGUCGGCAGAGGAUAAUCGCGUGGAUAUGGCACGCAAGUUUCUACCGGGCACCGUAAAUGUCCGACUGGAGCCGUUCGGGCGGCUAUAAACAGACCUCAGGCCCGAAGCGUGGCGGCACCUGCCGCCGGUGGUAAAAAAGAUCGGAAGAGCACACGUCU, the “aptazyme ON/OFF ratio” value is reported as 1.24. With GGGUCGGCAGAGUAUAAUCGCGUGGAUAUGGCACGCAAGUUUCUACCGGGCACCGUAAAUGUCCGACUGGAGCCGUUCGGGCGGCUAUAAACAGACCUCAGGCCCGAAGCGUGGCGGCACCUGCCGCCGGUGGUAAAAAAGAUCGGAAGAGCACACGUCU the “aptazyme ON/OFF ratio” value was 1.12. In the case of GGGUCGGCAGAAAAUAAUCGCGUGGAUAUGGCACGCAAGUUUCUACCGGGCACCGUAAAUGUCCGACUGGAGCCGUUCGGGCGGCUAUAAACAGACCUCAGGCCCGAAGCGUGGCGGCACCUGCCGCCGGUGGUAAAAAAGAUCGGAAGAGCACACGUCU, the “aptazyme ON/OFF ratio” value is reported as 1.04. For GGGUCGGCAGAAGAUAAUCGCGUGGAUAUGGCACGCAAGUUUCUACCGGGCACCGUAAAUGUCCGACUGGAGCCGUUCGGGCGGCUAUAAACAGACCUCAGGCCCGAAGCGUGGCGGCACCUGCCGCCGGUGGUAAAAAAGAUCGGAAGAGCACACGUCU, the “aptazyme ON/OFF ratio” value was 1.09. With GGGUCGGCAGAAUAUAAUCGCGUGGAUAUGGCACGCAAGUUUCUACCGGGCACCGUAAAUGUCCGACUGGAGCCGUUCGGGCGGCUAUAAACAGACCUCAGGCCCGAAGCGUGGCGGCACCUGCCGCCGGUGGUAAAAAAGAUCGGAAGAGCACACGUCU the “aptazyme ON/OFF ratio” value was 1.11. For GGGUCGGCAGUGUAUAAUCGCGUGGAUAUGGCACGCAAGUUUCUACCGGGCACCGUAAAUGUCCGACUGGAGCCGUUCGGGCGGCUAUAAACAGACCUCAGGCCCGAAGCGUGGCGGCACCUGCCGCCGGUGGUAAAAAAGAUCGGAAGAGCACACGUCU, the “aptazyme ON/OFF ratio” value was 1.15. With GGGUCGGCAGUGGAUAAUCGCGUGGAUAUGGCACGCAAGUUUCUACCGGGCACCGUAAAUGUCCGACUGGAGCCGUUCGGGCGGCUAUAAACAGACCUCAGGCCCGAAGCGUGGCGGCACCUGCCGCCGGUGGUAAAAAAGAUCGGAAGAGCACACGUCU the “aptazyme ON/OFF ratio” value was 1.05. For GGGUCGGCAGUGAAUAAUCGCGUGGAUAUGGCACGCAAGUUUCUACCGGGCACCGUAAAUGUCCGACUGGAGCCGUUCGGGCGGCUAUAAACAGACCUCAGGCCCGAAGCGUGGCGGCACCUGCCGCCGGUGGUAAAAAAGAUCGGAAGAGCACACGUCU, the “aptazyme ON/OFF ratio” value was 1.12. In the case of GGGUCGGCAGUUAAUAAUCGCGUGGAUAUGGCACGCAAGUUUCUACCGGGCACCGUAAAUGUCCGACUGGAGCCGUUCGGGCGGCUAUAAACAGACCUCAGGCCCGAAGCGUGGCGGCACCUGCCGCCGGUGGUAAAAAAGAUCGGAAGAGCACACGUCU, the “aptazyme ON/OFF ratio” value is reported as 1.12. With GGGUCGGCAGUUGAUAAUCGCGUGGAUAUGGCACGCAAGUUUCUACCGGGCACCGUAAAUGUCCGACUGGAGCCGUUCGGGCGGCUAUAAACAGACCUCAGGCCCGAAGCGUGGCGGCACCUGCCGCCGGUGGUAAAAAAGAUCGGAAGAGCACACGUCU the “aptazyme ON/OFF ratio” value was 1.1. With GGGUCGGCAGUUUAUAAUCGCGUGGAUAUGGCACGCAAGUUUCUACCGGGCACCGUAAAUGUCCGACUGGAGCCGUUCGGGCGGCUAUAAACAGACCUCAGGCCCGAAGCGUGGCGGCACCUGCCGCCGGUGGUAAAAAAGAUCGGAAGAGCACACGUCU the “aptazyme ON/OFF ratio” value was 1.26. With GGGUCGGCAGAGCAUAAUCGCGUGGAUAUGGCACGCAAGUUUCUACCGGGCACCGUAAAUGUCCGACUGGAGCCGUUCGGGCGGCUAUAAACAGACCUCAGGCCCGAAGCGUGGCGGCACCUGCCGCCGGUGGUAAAAAAGAUCGGAAGAGCACACGUCU the “aptazyme ON/OFF ratio” value was 1.08. In the case of GGGUCGGCAGAACAUAAUCGCGUGGAUAUGGCACGCAAGUUUCUACCGGGCACCGUAAAUGUCCGACUGGAGCCGUUCGGGCGGCUAUAAACAGACCUCAGGCCCGAAGCGUGGCGGCACCUGCCGCCGGUGGUAAAAAAGAUCGGAAGAGCACACGUCU, the “aptazyme ON/OFF ratio” value is reported as 1.11. In the case of GGGUCGGCAGAUCAUAAUCGCGUGGAUAUGGCACGCAAGUUUCUACCGGGCACCGUAAAUGUCCGACUGGAGCCGUUCGGGCGGCUAUAAACAGACCUCAGGCCCGAAGCGUGGCGGCACCUGCCGCCGGUGGUAAAAAAGAUCGGAAGAGCACACGUCU, the “aptazyme ON/OFF ratio” value is reported as 1.06. With GGGUCGGCAGCCCAUAAUCGCGUGGAUAUGGCACGCAAGUUUCUACCGGGCACCGUAAAUGUCCGACUGGAGCCGUUCGGGCGGCUAUAAACAGACCUCAGGCCCGAAGCGUGGCGGCACCUGCCGCCGGUGGUAAAAAAGAUCGGAAGAGCACACGUCU the “aptazyme ON/OFF ratio” value was 1.04. With GGGUCGGCAGACCAUAAUCGCGUGGAUAUGGCACGCAAGUUUCUACCGGGCACCGUAAAUGUCCGACUGGAGCCGUUCGGGCGGCUAUAAACAGACCUCAGGCCCGAAGCGUGGCGGCACCUGCCGCCGGUGGUAAAAAAGAUCGGAAGAGCACACGUCU the “aptazyme ON/OFF ratio” value was 1.07. In the case of GGGUCGGCAGAUUAUAAUCGCGUGGAUAUGGCACGCAAGUUUCUACCGGGCACCGUAAAUGUCCGACUGGAGCCGUUCGGGCGGCUAUAAACAGACCUCAGGCCCGAAGCGUGGCGGCACCUGCCGCCGGUGGUAAAAAAGAUCGGAAGAGCACACGUCU, the “aptazyme ON/OFF ratio” value is reported as 1.13. For GGGUCGGCAGAUAAUAAUCGCGUGGAUAUGGCACGCAAGUUUCUACCGGGCACCGUAAAUGUCCGACUGGAGCCGUUCGGGCGGCUAUAAACAGACCUCAGGCCCGAAGCGUGGCGGCACCUGCCGCCGGUGGUAAAAAAGAUCGGAAGAGCACACGUCU, the “aptazyme ON/OFF ratio” value was 1.09. With GGGUCGGCAGAUGAUAAUCGCGUGGAUAUGGCACGCAAGUUUCUACCGGGCACCGUAAAUGUCCGACUGGAGCCGUUCGGGCGGCUAUAAACAGACCUCAGGCCCGAAGCGUGGCGGCACCUGCCGCCGGUGGUAAAAAAGAUCGGAAGAGCACACGUCU the “aptazyme ON/OFF ratio” value was 1.09. In the case of GGGUCGGCAGACAAUAAUCGCGUGGAUAUGGCACGCAAGUUUCUACCGGGCACCGUAAAUGUCCGACUGGAGCCGUUCGGGCGGCUAUAAACAGACCUCAGGCCCGAAGCGUGGCGGCACCUGCCGCCGGUGGUAAAAAAGAUCGGAAGAGCACACGUCU, the “aptazyme ON/OFF ratio” value is reported as 1.05. In the case of GGGUCGGCAGACUAUAAUCGCGUGGAUAUGGCACGCAAGUUUCUACCGGGCACCGUAAAUGUCCGACUGGAGCCGUUCGGGCGGCUAUAAACAGACCUCAGGCCCGAAGCGUGGCGGCACCUGCCGCCGGUGGUAAAAAAGAUCGGAAGAGCACACGUCU, the “aptazyme ON/OFF ratio” value is reported as 1.05. With GGGUCGGCAGACGAUAAUCGCGUGGAUAUGGCACGCAAGUUUCUACCGGGCACCGUAAAUGUCCGACUGGAGCCGUUCGGGCGGCUAUAAACAGACCUCAGGCCCGAAGCGUGGCGGCACCUGCCGCCGGUGGUAAAAAAGAUCGGAAGAGCACACGUCU the “aptazyme ON/OFF ratio” value was 1.04. With GGGUCGGCAGUGCAUAAUCGCGUGGAUAUGGCACGCAAGUUUCUACCGGGCACCGUAAAUGUCCGACUGGAGCCGUUCGGGCGGCUAUAAACAGACCUCAGGCCCGAAGCGUGGCGGCACCUGCCGCCGGUGGUAAAAAAGAUCGGAAGAGCACACGUCU the “aptazyme ON/OFF ratio” value was 1.13. For GGGUCGGCAGUUCAUAAUCGCGUGGAUAUGGCACGCAAGUUUCUACCGGGCACCGUAAAUGUCCGACUGGAGCCGUUCGGGCGGCUAUAAACAGACCUCAGGCCCGAAGCGUGGCGGCACCUGCCGCCGGUGGUAAAAAAGAUCGGAAGAGCACACGUCU, the “aptazyme ON/OFF ratio” value was 1.35. With GGGUCGGCAGUAUAUAAUCGCGUGGAUAUGGCACGCAAGUUUCUACCGGGCACCGUAAAUGUCCGACUGGAGCCGUUCGGGCGGCUAUAAACAGACCUCAGGCCCGAAGCGUGGCGGCACCUGCCGCCGGUGGUAAAAAAGAUCGGAAGAGCACACGUCU the “aptazyme ON/OFF ratio” value was 1.09. In the case of GGGUCGGCAGUAAAUAAUCGCGUGGAUAUGGCACGCAAGUUUCUACCGGGCACCGUAAAUGUCCGACUGGAGCCGUUCGGGCGGCUAUAAACAGACCUCAGGCCCGAAGCGUGGCGGCACCUGCCGCCGGUGGUAAAAAAGAUCGGAAGAGCACACGUCU, the “aptazyme ON/OFF ratio” value is reported as 1.07. For GGGUCGGCAGUAGAUAAUCGCGUGGAUAUGGCACGCAAGUUUCUACCGGGCACCGUAAAUGUCCGACUGGAGCCGUUCGGGCGGCUAUAAACAGACCUCAGGCCCGAAGCGUGGCGGCACCUGCCGCCGGUGGUAAAAAAGAUCGGAAGAGCACACGUCU, the “aptazyme ON/OFF ratio” value was 1.03. For GGGUCGGCAGUCAAUAAUCGCGUGGAUAUGGCACGCAAGUUUCUACCGGGCACCGUAAAUGUCCGACUGGAGCCGUUCGGGCGGCUAUAAACAGACCUCAGGCCCGAAGCGUGGCGGCACCUGCCGCCGGUGGUAAAAAAGAUCGGAAGAGCACACGUCU, the “aptazyme ON/OFF ratio” value was 1.28. For GGGUCGGCAGUCUAUAAUCGCGUGGAUAUGGCACGCAAGUUUCUACCGGGCACCGUAAAUGUCCGACUGGAGCCGUUCGGGCGGCUAUAAACAGACCUCAGGCCCGAAGCGUGGCGGCACCUGCCGCCGGUGGUAAAAAAGAUCGGAAGAGCACACGUCU, the “aptazyme ON/OFF ratio” value was 1.26. For GGGUCGGCAGUCGAUAAUCGCGUGGAUAUGGCACGCAAGUUUCUACCGGGCACCGUAAAUGUCCGACUGGAGCCGUUCGGGCGGCUAUAAACAGACCUCAGGCCCGAAGCGUGGCGGCACCUGCCGCCGGUGGUAAAAAAGAUCGGAAGAGCACACGUCU, the “aptazyme ON/OFF ratio” value was 1.19. With GGGUCGGCAGCGCAUAAUCGCGUGGAUAUGGCACGCAAGUUUCUACCGGGCACCGUAAAUGUCCGACUGGAGCCGUUCGGGCGGCUAUAAACAGACCUCAGGCCCGAAGCGUGGCGGCACCUGCCGCCGGUGGUAAAAAAGAUCGGAAGAGCACACGUCU the “aptazyme ON/OFF ratio” value was 1.2. For GGGUCGGCAGCACAUAAUCGCGUGGAUAUGGCACGCAAGUUUCUACCGGGCACCGUAAAUGUCCGACUGGAGCCGUUCGGGCGGCUAUAAACAGACCUCAGGCCCGAAGCGUGGCGGCACCUGCCGCCGGUGGUAAAAAAGAUCGGAAGAGCACACGUCU, the “aptazyme ON/OFF ratio” value was 1.3. With GGGUCGGCAGCAUAUAAUCGCGUGGAUAUGGCACGCAAGUUUCUACCGGGCACCGUAAAUGUCCGACUGGAGCCGUUCGGGCGGCUAUAAACAGACCUCAGGCCCGAAGCGUGGCGGCACCUGCCGCCGGUGGUAAAAAAGAUCGGAAGAGCACACGUCU the “aptazyme ON/OFF ratio” value was 1.19. For GGGUCGGCAGCAAAUAAUCGCGUGGAUAUGGCACGCAAGUUUCUACCGGGCACCGUAAAUGUCCGACUGGAGCCGUUCGGGCGGCUAUAAACAGACCUCAGGCCCGAAGCGUGGCGGCACCUGCCGCCGGUGGUAAAAAAGAUCGGAAGAGCACACGUCU, the “aptazyme ON/OFF ratio” value was 1.15. In the case of GGGUCGGCAGCAGAUAAUCGCGUGGAUAUGGCACGCAAGUUUCUACCGGGCACCGUAAAUGUCCGACUGGAGCCGUUCGGGCGGCUAUAAACAGACCUCAGGCCCGAAGCGUGGCGGCACCUGCCGCCGGUGGUAAAAAAGAUCGGAAGAGCACACGUCU, the “aptazyme ON/OFF ratio” value is reported as 1.16.
